Molecular target: human HER2 (ErbB2) (human) (UniProt P04626)
Experiment: cell-based or functional assay

murine monoclonal antibody 4D5 (ATCC CRL 10463)
maximum inhibition of cell proliferation in SK-BR-3 cells: 66%

From patent US20020001587A1
